Laboratory results: patent US20240141072A1 (published 2024)

How the values were obtained:
Experiment in all cases: Octet BLI; biotinylated huDLL3-IgG1 fusion on streptavidin tips; single 50 nM trispecific, conditioned medium
[1] = target: T1, anti-DLL3 trispecific protein with DLL3 binding domain 42A03
T1 construct: trispecific, one chain
Procedure: (§1) Using the conditioned medium with known concentrations of the anti-DLL3 trispecific proteins, the relative binding affinities of the anti-DLL3 trispecific proteins toward human DLL3 protein were measured using a method where biotinylated version of human DLL3 protein were expressed as a human IgG1 fusion protein, and the binding affinity measurement was carried out in an Octet instrument with streptavidin tips.

[2] = target: T2, anti-DLL3 trispecific protein with DLL3 binding domain 42A08
T2 construct: trispecific, one chain
Procedure: as §1

[3] = target: T3, anti-DLL3 trispecific protein with DLL3 binding domain 42D05
T3 construct: trispecific, one chain
Procedure: as §1

[4] = target: T4, anti-DLL3 trispecific protein with DLL3 binding domain 51B01
T4 construct: trispecific, one chain
Procedure: as §1

[5] = target: T5, anti-DLL3 trispecific protein with DLL3 binding domain 42C07
T5 construct: trispecific, one chain
Procedure: as §1

[6] = target: T6, anti-DLL3 trispecific protein with DLL3 binding domain 51G02
T6 construct: trispecific, one chain; also called 51G2
Procedure: as §1

[7] = target: T7, anti-DLL3 trispecific protein with DLL3 binding domain 53A05
T7 construct: trispecific, one chain
Procedure: as §1

[8] = target: T8, anti-DLL3 trispecific protein with DLL3 binding domain 42E07
T8 construct: trispecific, one chain
Procedure: as §1

[9] = target: T9, anti-DLL3 trispecific protein with DLL3 binding domain 51G04
T9 construct: trispecific, one chain
Procedure: as §1

[10] = target: T10, anti-DLL3 trispecific protein with DLL3 binding domain 42A11
T10 construct: trispecific, one chain
Procedure: as §1

[11] = target: T11, anti-DLL3 trispecific protein with DLL3 binding domain 53A04
T11 construct: trispecific, one chain
Procedure: as §1

[12] = target: T12, anti-DLL3 trispecific protein with DLL3 binding domain 42H05
T12 construct: trispecific, one chain
Procedure: as §1

[13] = target: T13, anti-DLL3 trispecific protein with DLL3 binding domain 42E06
T13 construct: trispecific, one chain
Procedure: as §1

[14] = target: T14, anti-DLL3 trispecific protein with DLL3 binding domain 42E02
T14 construct: trispecific, one chain
Procedure: as §1

[15] = target: T15, anti-DLL3 trispecific protein with DLL3 binding domain 41C02
T15 construct: trispecific, one chain
Procedure: as §1

[16] = target: T16, anti-DLL3 trispecific protein with DLL3 binding domain 42E05
T16 construct: trispecific, one chain
Procedure: as §1

[17] = target: T17, anti-DLL3 trispecific protein with DLL3 binding domain 52C04
T17 construct: trispecific, one chain; also called 52C4
Procedure: as §1

T12 sequence (chain, as listed by the source): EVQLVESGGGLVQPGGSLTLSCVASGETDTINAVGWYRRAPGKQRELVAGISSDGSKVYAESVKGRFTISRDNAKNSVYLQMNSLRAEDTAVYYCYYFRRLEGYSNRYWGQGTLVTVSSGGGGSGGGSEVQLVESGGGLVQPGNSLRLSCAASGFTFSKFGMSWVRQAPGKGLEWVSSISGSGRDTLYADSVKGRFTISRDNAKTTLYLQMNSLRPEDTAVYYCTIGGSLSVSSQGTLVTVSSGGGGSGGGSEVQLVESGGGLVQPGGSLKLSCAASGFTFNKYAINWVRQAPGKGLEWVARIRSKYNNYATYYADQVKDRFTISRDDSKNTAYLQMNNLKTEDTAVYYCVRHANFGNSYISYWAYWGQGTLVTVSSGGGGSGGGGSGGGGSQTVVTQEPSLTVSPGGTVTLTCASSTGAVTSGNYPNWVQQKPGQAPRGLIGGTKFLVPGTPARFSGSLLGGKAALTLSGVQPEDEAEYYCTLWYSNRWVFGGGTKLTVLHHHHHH
T16 sequence (chain, as listed by the source): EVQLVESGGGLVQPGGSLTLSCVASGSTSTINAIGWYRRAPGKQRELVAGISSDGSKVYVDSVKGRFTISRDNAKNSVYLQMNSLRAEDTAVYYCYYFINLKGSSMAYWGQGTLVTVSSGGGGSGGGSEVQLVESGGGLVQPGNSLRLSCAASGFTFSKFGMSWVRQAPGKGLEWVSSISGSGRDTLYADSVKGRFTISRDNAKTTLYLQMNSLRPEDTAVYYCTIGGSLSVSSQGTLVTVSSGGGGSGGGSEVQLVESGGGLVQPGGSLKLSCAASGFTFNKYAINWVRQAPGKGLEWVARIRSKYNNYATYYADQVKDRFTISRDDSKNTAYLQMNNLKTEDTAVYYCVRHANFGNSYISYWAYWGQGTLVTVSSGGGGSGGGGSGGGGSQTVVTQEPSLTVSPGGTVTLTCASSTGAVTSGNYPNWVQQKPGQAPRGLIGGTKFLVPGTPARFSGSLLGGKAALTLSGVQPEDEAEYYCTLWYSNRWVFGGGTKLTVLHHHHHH
T6 sequence (chain, as listed by the source): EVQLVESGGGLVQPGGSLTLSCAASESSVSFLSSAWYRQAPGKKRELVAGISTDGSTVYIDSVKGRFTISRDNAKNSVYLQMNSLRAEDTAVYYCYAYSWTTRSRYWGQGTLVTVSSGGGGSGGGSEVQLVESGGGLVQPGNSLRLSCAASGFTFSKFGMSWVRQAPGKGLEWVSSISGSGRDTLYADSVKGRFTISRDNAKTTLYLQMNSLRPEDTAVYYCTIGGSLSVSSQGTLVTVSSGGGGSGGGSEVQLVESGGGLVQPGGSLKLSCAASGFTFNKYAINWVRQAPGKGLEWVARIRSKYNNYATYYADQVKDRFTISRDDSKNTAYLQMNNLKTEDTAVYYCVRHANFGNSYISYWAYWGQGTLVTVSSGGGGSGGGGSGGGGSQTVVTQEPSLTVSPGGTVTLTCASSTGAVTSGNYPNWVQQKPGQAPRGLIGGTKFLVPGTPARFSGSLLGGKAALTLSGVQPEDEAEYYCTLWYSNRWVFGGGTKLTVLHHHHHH
T2 sequence (chain, as listed by the source): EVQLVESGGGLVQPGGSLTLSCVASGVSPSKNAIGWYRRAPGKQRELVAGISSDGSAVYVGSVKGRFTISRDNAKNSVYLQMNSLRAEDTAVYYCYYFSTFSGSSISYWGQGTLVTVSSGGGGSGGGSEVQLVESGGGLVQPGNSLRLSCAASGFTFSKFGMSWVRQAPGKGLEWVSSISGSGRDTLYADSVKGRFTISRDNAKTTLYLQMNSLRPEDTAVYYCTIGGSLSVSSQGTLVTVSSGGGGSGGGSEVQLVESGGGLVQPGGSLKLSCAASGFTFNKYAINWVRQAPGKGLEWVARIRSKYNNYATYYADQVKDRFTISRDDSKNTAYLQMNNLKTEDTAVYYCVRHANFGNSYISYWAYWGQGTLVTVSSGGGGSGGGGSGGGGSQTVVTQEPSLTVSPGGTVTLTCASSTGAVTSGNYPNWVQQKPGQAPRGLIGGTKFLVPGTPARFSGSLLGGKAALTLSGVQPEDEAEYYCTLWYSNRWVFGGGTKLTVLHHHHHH
T10 sequence (chain, as listed by the source): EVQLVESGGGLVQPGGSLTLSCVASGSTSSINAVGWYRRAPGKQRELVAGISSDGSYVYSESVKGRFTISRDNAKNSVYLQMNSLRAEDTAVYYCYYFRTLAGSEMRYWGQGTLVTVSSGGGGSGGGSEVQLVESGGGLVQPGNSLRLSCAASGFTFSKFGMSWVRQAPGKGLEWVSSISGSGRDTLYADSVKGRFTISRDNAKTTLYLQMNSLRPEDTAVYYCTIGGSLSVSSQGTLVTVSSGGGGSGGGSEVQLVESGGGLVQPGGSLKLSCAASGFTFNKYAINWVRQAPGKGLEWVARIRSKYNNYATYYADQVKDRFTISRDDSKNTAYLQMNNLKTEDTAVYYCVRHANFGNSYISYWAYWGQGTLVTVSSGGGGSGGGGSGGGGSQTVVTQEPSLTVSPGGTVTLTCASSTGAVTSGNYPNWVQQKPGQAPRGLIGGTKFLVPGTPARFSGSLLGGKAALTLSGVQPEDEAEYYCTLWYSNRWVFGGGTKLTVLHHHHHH
T7 sequence (chain, as listed by the source): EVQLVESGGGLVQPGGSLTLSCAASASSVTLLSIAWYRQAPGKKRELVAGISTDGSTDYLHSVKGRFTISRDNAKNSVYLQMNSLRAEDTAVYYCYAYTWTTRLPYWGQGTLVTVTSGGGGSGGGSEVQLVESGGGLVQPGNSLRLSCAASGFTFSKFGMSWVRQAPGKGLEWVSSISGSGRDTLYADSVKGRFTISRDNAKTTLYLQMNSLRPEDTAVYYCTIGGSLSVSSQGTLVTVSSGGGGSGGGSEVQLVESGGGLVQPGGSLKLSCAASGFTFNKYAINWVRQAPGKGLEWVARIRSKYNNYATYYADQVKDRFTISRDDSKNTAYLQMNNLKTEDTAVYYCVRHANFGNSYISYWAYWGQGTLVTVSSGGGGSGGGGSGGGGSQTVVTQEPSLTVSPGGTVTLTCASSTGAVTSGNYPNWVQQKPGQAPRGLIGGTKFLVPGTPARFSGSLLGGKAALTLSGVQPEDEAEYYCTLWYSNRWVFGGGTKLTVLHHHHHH
T4 sequence (chain, as listed by the source): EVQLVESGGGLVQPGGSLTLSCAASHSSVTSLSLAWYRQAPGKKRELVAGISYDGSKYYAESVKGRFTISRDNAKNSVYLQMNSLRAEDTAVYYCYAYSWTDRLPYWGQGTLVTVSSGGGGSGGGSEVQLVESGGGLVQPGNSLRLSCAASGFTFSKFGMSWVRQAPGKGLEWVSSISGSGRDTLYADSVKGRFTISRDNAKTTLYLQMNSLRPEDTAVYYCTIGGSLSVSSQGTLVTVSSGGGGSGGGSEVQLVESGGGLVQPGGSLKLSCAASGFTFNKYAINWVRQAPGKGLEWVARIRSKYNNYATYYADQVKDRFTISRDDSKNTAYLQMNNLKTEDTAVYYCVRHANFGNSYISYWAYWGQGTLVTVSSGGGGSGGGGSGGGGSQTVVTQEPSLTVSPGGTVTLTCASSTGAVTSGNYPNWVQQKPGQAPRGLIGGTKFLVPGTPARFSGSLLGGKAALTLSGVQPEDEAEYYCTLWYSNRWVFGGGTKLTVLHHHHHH
T9 sequence (chain, as listed by the source): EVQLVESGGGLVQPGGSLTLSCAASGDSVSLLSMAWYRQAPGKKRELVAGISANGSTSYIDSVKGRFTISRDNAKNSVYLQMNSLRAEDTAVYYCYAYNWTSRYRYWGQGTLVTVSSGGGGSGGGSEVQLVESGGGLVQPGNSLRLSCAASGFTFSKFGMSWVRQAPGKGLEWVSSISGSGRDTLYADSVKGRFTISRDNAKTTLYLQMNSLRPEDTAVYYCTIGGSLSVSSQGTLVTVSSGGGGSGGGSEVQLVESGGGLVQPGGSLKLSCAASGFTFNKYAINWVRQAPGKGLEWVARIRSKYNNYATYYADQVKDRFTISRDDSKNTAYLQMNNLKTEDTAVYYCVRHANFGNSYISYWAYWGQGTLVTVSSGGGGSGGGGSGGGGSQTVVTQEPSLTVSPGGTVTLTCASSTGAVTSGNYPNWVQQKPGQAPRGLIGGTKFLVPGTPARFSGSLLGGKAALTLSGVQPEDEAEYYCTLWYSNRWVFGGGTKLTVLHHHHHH
T15 sequence (chain, as listed by the source): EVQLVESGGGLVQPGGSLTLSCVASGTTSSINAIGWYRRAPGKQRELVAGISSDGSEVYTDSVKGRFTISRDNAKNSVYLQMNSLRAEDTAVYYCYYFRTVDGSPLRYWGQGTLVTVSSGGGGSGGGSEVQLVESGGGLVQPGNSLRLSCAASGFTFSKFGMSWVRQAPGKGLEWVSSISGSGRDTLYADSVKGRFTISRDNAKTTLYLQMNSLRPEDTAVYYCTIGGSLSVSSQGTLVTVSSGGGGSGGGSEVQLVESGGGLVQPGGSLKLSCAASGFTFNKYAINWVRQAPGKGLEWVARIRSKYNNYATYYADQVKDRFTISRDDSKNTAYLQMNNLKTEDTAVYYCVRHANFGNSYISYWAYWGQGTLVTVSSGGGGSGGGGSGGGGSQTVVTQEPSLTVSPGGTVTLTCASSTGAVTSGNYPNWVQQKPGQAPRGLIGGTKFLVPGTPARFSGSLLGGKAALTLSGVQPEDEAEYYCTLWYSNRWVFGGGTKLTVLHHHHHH

Kd [1]: 1.9 nM
Kd [2]: 3.6 nM
Kd [3]: 2.7 nM
Kd [4]: 1.6 nM
Kd [5]: 6.4 nM
Kd [6]: 1.3 nM
Kd [7]: 0.31 nM
Kd [8]: 3.9 nM
Kd [9]: 21 nM
Kd [10]: 2 nM
Kd [11]: 0.42 nM
Kd [12]: 2.7 nM
Kd [13]: 3.8 nM
Kd [14]: 2.9 nM
Kd [15]: 2.4 nM
Kd [16]: 1.2 nM
Kd [17]: 0.82 nM
B1: biotinylated human DLL3 protein expressed as a human IgG1 fusion protein (Fc fusion, not shown: a dimerising Fc or GST)
chain: AGVFELQIHSFGPGPGPGAPRSPCSARLPCRLFFRVCLKPGLSEEAAESPCALGAALSARGPVYTEQPGAPAPDLPLPDGLLQVPFRDAWPGTFSFIIETWREELGDQIGGPAWSLLARVAGRRRLAAGGPWARDIQRAGAWELRFSYRARCEPPAVGTACTRLCRPRSAPSRCGPGLRPCAPLEDECEAPLVCRAGCSPEHGFCEQPGECRCLEGWTGPLCTVPVSTSSCLSPRGPSSATTGCLVPGPGPCDGNPCANGGSCSETPRSFECTCPRGFYGLRCEVSGVTCADGPCFNGGLCVGGADPDSAYICHCPPGFQGSNCEKRVDRCSLQPCRNGGLCLDLGHALRCRCRAGFAGPRCEHDLDDCAGRACANGGTCVEGGGAHRCSCALGFGGRDCRERADPCAARPCAHGGRCYAHFSGLVCACAPGYMGARCEFPVHPDGASALPAAPPGLRPGDPQRYL
modifications: biotinylated
